# The supplement of paper PMC11246515
# ± gives the standard deviation of the averaged measurements.
# Experiment: total protein half-life in vivo (active degradation + dilution); higher = more stable protein
# [1] = E. coli NCM3722 delta-clpP delta-lon delta-hslV, growth: N-lim chemostat, doubling time 6 h
# [2] = E. coli NCM3722 delta-clpP, growth: N-lim chemostat, doubling time 6 h
# [3] = E. coli NCM3722 delta-hslV, growth: N-lim chemostat, doubling time 6 h
# [4] = E. coli NCM3722 delta-lon, growth: N-lim chemostat, doubling time 6 h
# [5] = E. coli NCM3722 delta-smpB, growth: N-lim chemostat, doubling time 6 h
# [6] = wild type E. coli NCM3722, growth: C-lim chemostat, doubling time 3 h
# [7] = wild type E. coli NCM3722, growth: C-lim chemostat, doubling time 6 h
# [8] = wild type E. coli NCM3722, growth: C-lim chemostat, doubling time 12 h
# [9] = wild type E. coli NCM3722, growth: N-lim chemostat, doubling time 6 h
# [10] = wild type E. coli NCM3722, growth: N-lim chemostat, doubling time 12 h
# [11] = wild type E. coli NCM3722, growth: P-lim chemostat, doubling time 6 h
# [12] = wild type E. coli NCM3722, growth: P-lim chemostat, doubling time 12 h
Sequence,total protein half-life in vivo [1] [h],total protein half-life in vivo [2] [h],total protein half-life in vivo [3] [h],total protein half-life in vivo [4] [h],total protein half-life in vivo [5] [h],total protein half-life in vivo [6] [h],total protein half-life in vivo [7] [h],total protein half-life in vivo [8] [h],total protein half-life in vivo [9] [h],total protein half-life in vivo [10] [h],total protein half-life in vivo [11] [h],total protein half-life in vivo [12] [h]
MLVSKKPMVLVILDGYGYREEQQDNAIFSAKTPVMDALWANRPHTLIDASGLEVGLPDRQMGNSEVGHVNLGAGRIVYQDLTRLDVEIKDRAFFANPVLTGAVDKAKNAGKAVHIMGLLSAGGVHSHEDHIMAMVELAAERGAEKIYLHAFLDGRDTPPRSAESSLKKFEEKFAALGKGRVASIIGRYYAMDRDNRWDRVEKAYDLLTLAQGEFQADTAVAGLQAAYARDENDEFVKATVIRAEGQPDAAMEDGDALIFMNFRADRAREITRAFVNADFDGFARKKVVNVDFVMLTEYAADIKTAVAYPPASLVNTFGEWMAKNDKTQLRISETEKYAHVTFFFNGGVEESFKGEDRILINSPKVATYDLQPEMSSAELTEKLVAAIKSGKYDTIICNYPNGDMVGHTGVMEAAVKAVEALDHCVEEVAKAVESVGGQLLITADHGNAEQMRDPATGQAHTAHTNLPVPLIYVGDKNVKAVEGGKLSDIAPTMLSLMGMEIPQEMTGKPLFIVE,5.19 ± 0.06,5.05 ± 0.79,5.19 ± 0.44,4.97 ± 0.22,4.458 ± 0.033,2.85 ± 0.1,5.58 ± 0.34,10 ± 1.6,4.76 ± 0.1,7.769 ± 0.048,5.1 ± 0.24,10.35 ± 0.034
MADNKPELQRGLEARHIELIALGGTIGVGLFMGAASTLKWAGPSVLLAYIIAGLFVFFIMRSMGEMLFLEPVTGSFAVYAHRYMSPFFGYLTAWSYWFMWMAVGISEITAIGVYVQFWFPEMAQWIPALIAVALVALANLAAVRLYGEIEFWFAMIKVTTIIVMIVIGLGVIFFGFGNGGQSIGFSNLTEHGGFFAGGWKGFLTALCIVVASYQGVELIGITAGEAKNPQVTLRSAVGKVLWRILIFYVGAIFVIVTIFPWNEIGSNGSPFVLTFAKIGITAAAGIINFVVLTAALSGCNSGMYSCGRMLYALAKNRQLPAAMAKVSRHGVPVAGVAVSIAILLIGSCLNYIIPNPQRVFVYVYSASVLPGMVPWFVILISQLRFRRAHKAAIASHPFRSILFPWANYVTMAFLICVLIGMYFNEDTRMSLFVGIIFMLAVTAIYKVFGLNRHGKAHKLEE,6.95,–,6.01 ± 0.26,5.41 ± 0.71,5.99 ± 1.1,–,6.82 ± 0.17,10.7,5.01,11.7,> 8,12.7 ± 2.9
MTALNKKWLSGLVAGALMAVSVGTLAAEQKTLHIYNWSDYIAPDTVANFEKETGIKVVYDVFDSNEVLEGKLMAGSTGFDLVVPSASFLERQLTAGVFQPLDKSKLPEWKNLDPELLKLVAKHDPDNKFAMPYMWATTGIGYNVDKVKAVLGENAPVDSWDLILKPENLEKLKSCGVSFLDAPEEVFATVLNYLGKDPNSTKADDYTGPATDLLLKLRPNIRYFHSSQYINDLANGDICVAIGWAGDVWQASNRAKEAKNGVNVSFSIPKEGAMAFFDVFAMPADAKNKDEAYQFLNYLLRPDVVAHISDHVFYANANKAATPLVSAEVRENPGIYPPADVRAKLFTLKVQDPKIDRVRTRAWTKVKSGK,4.64 ± 0.23,6.13 ± 0.89,6.35 ± 0.38,7 ± 1.2,5.81 ± 0.13,2.94 ± 0.29,6.34 ± 0.41,13 ± 0.15,6.215 ± 0.018,12.89 ± 0.11,6.46 ± 0.65,13.7 ± 1.1
MITYHDAFAKANHYLDDADLPVVITLHGRFSQGWYFCFEAREFLETGDEAARLAGNAPFIIDKDSGEIHSLGTAKPLEEYLQDYEIKKATFGLP,4.62 ± 0.3,–,–,–,–,–,–,–,–,–,–,–
MNMKKLATLVSAVALSATVSANAMAKDTIALVVSTLNNPFFVSLKDGAQKEADKLGYNLVVLDSQNNPAKELANVQDLTVRGTKILLINPTDSDAVGNAVKMANQANIPVITLDRQATKGEVVSHIASDNVLGGKIAGDYIAKKAGEGAKVIELQGIAGTSAARERGEGFQQAVAAHKFNVLASQPADFDRIKGLNVMQNLLTAHPDVQAVFAQNDEMALGALRALQTAGKSDVMVVGFDGTPDGEKAVNDGKLAATIAQLPDQIGAKGVETADKVLKGEKVQAKYPVDLKLVVKQ,3.56 ± 0.29,5.92 ± 0.94,–,6.39 ± 0.68,6.26 ± 0.56,3.27 ± 0.035,6.14 ± 1.1,9.24 ± 0.57,6.13 ± 0.6,10.9 ± 0.88,6.05 ± 0.068,11.5 ± 0.92
MRTTIAVVLGAISLTSAFVFADKPDVARSANDEVSTLFFGHDDRVPVNDTTQSPWDAVGQLETASGNLCTATLIAPNLALTAGHCLLTPPKGKADKAVALRFVSNKGLWRYEIHDIEGRVDPTLGKRLKADGDGWIVPPAAAPWDFGLIVLRNPPSGITPLPLFEGDKAALTAALKAAGRKVTQAGYPEDHLDTLYSHQNCEVTGWAQTSVMSHQCDTLPGDSGSPLMLHTDDGWQLIGVQSSAPAAKDRWRADNRAISVTGFRDKLDQLSQK,5.08 ± 0.47,5.58 ± 0.3,6.26 ± 0.068,5.8 ± 0.71,4.76 ± 0.16,2.07 ± 0.13,4.406 ± 0.0069,9.64 ± 2.3,5.29 ± 0.23,10.9 ± 0.45,6.23 ± 0.28,11.4 ± 1.1
MRRTFIKKEGVVITTLARYLLGEKCGNRLKTIDELANECRSSVGLTQAALKTLESSGAIRIERRGRNGSYLVEMDNKALLTHVDINNVVCAMPLPYTRLYEGLASGLKAQFDGIPFYYAHMRGADIRVECLLNGVYDMAVVSRLAAESYLTQKGLCLALELGPHTYVGEHQLICRKGESANVKRVGLDNRSADQKIMTDVFFGGSDVERVDLSYHESLQRIVKGDVDAVIWNVVAENELTMLGLEATPLTDDPRFLQATEAVVLTRVDDYPMQQLLRAVVDKHALLAHQQRVVSGEQEPSY,6.2 ± 0.085,5.94 ± 0.07,5.34 ± 0.15,5.75 ± 0.52,4.78 ± 0.41,2.78 ± 0.093,5.3 ± 0.1,7.63 ± 2.6,4.68 ± 0.65,9.45 ± 0.82,5.166 ± 0.0084,9.42 ± 0.63
MTDNNTALKKAGLKVTLPRLKILEVLQEPDNHHVSAEDLYKRLIDMGEEIGLATVYRVLNQFDDAGIVTRHNFEGGKSVFELTQQHHHDHLICLDCGKVIEFSDDSIEARQREIAAKHGIRLTNHSLYLYGHCAEGDCREDEHAHEGK [P0A9A9],6.49 ± 0.92,5.31 ± 0.6,4.58 ± 1.7,6.38 ± 0.37,3.6 ± 0.55,2.35 ± 0.2,4.31 ± 0.14,8.38 ± 1.9,4.58 ± 0.81,11.3 ± 3.6,5.27 ± 0.16,11.5 ± 1.6
MKLAVYSTKQYDKKYLQQVNESFGFELEFFDFLLTEKTAKTANGCEAVCIFVNDDGSRPVLEELKKHGVKYIALRCAGFNNVDLDAAKELGLKVVRVPAYDPEAVAEHAIGMMMTLNRRIHRAYQRTRDANFSLEGLTGFTMYGKTAGVIGTGKIGVAMLRILKGFGMRLLAFDPYPSAAALELGVEYVDLPTLFSESDVISLHCPLTPENYHLLNEAAFEQMKNGVMIVNTSRGALIDSQAAIEALKNQKIGSLGMDVYENERDLFFEDKSNDVIQDDVFRRLSACHNVLFTGHQAFLTAEALTSISQTTLQNLSNLEKGETCPNELV,4.95 ± 0.5,5.65 ± 1.9,4.53 ± 0.051,5.26 ± 0.41,4.57 ± 0.16,3.08 ± 0.3,5.97 ± 0.49,11.3 ± 0.19,4.64 ± 0.38,7.53 ± 0.61,5.67 ± 0.38,12.3 ± 0.16
MTELAQLQASAEQAAALLKAMSHPKRLLILCMLSGSPGTSAGELTRITGLSASATSQHLARMRDEGLIDSQRDAQRILYSIKNEAVNAIIATLKNVYCP,–,–,–,–,–,–,–,–,–,–,–,9.02
MSGGLVTAAYIVAAILFIFSLAGLSKHETSRQGNNFGIAGMAIALIATIFGPDTGNVGWILLAMVIGGAIGIRLAKKVEMTEMPELVAILHSFVGLAAVLVGFNSYLHHDAGMAPILVNIHLTEVFLGIFIGAVTFTGSVVAFGKLCGKISSKPLMLPNRHKMNLAALVVSFLLLIVFVRTDSVGLQVLALLIMTAIALVFGWHLVASIGGADMPVVVSMLNSYSGWAAAAAGFMLSNDLLIVTGALVGSSGAILSYIMCKAMNRSFISVIAGGFGTDGSSTGDDQEVGEHREITAEETAELLKNSHSVIITPGYGMAVAQAQYPVAEITEKLRARGINVRFGIHPVAGRLPGHMNVLLAEAKVPYDIVLEMDEINDDFADTDTVLVIGANDTVNPAAQDDPKSPIAGMPVLEVWKAQNVIVFKRSMNTGYAGVQNPLFFKENTHMLFGDAKASVDAILKAL [P0AB67],6.55 ± 0.55,6.742 ± 0.019,6.72 ± 1.3,5.57 ± 0.22,6.05 ± 0.38,3.36 ± 0.3,6.08 ± 1.6,14.8 ± 0.91,6.02 ± 0.96,11.7 ± 0.14,6.5 ± 0.41,11.6 ± 1.1
MALLPDKEKLLRNFLRCANWEEKYLYIIELGQRLPELRDEDRSPQNSIQGCQSQVWIVMRQNAQGIIELQGDSDAAIVKGLIAVVFILYDQMTPQDIVNFDVRPWFEKMALTQHLTPSRSQGLEAMIRAIRAKAAALS,4.3 ± 0.53,3.71 ± 0.31,–,5.07 ± 1.1,4.012 ± 0.015,3.39,4.57 ± 0.48,9.46 ± 0.25,3.509 ± 0.018,5.75 ± 0.11,4.85 ± 0.13,10.1 ± 1.2
MLILLGYLVVLGTVFGGYLMTGGSLGALYQPAELVIIAGAGIGSFIVGNNGKAIKGTLKALPLLFRRSKYTKAMYMDLLALLYRLMAKSRQMGMFSLERDIENPRESEIFASYPRILADSVMLDFIVDYLRLIISGHMNTFEIEALMDEEIETHESEAEVPANSLALVGDSLPAFGIVAAVMGVVHALGSADRPAAELGALIAHAMVGTFLGILLAYGFISPLATVLRQKSAETSKMMQCVKVTLLSNLNGYAPPIAVEFGRKTLYSSERPSFIELEEHVRAVKNPQQQTTTEEA,–,–,–,–,–,1.32 ± 0.061,1.57,2.1,–,–,–,–
